# In the PETadex activity labels (doi:10.1021/acscatal.2c02275):
# Substitutions are numbered along the chain they refer to.
# B1: unnamed (protein)
# chain: MANPYERGPDPTESSIEAVRGPFAVAQTTVSRLQADGFGGGTIYYPTDTSQGTFGAVAISPGFTAGQESIAWLGPRIASQGFVVITIDTITRLDQPDSRGRQLQAALDHLRTNSVVRNRIDPNRMAVMGHSMGGGGALSAAANNTSLEAAIPLQGWHTRKNWSSVRTPTLVVGAQLDTIAPVSSHSEAFYNSLPSDLDKAYMELRGASHMVSNTPDTTTAKYSIAWLKRFVDDDLRYEQFLCPAPDDFAISEYRSTCPF
# B2: unnamed (protein)
# chain: B1 chain with M210F
# B3: unnamed (protein)
# chain: B1 chain with M210C
# B4: unnamed (protein)
# chain: B1 chain with M210E
# B5: unnamed (protein)
# chain: B1 chain with I179Y, M210L
# B6: unnamed (protein)
# chain: B1 chain with W156F, M210L
# B7: unnamed (protein)
# chain: B1 chain with M210T
# B8: unnamed (protein)
# chain: B1 chain with M210H
# B9: unnamed (protein)
# chain: B1 chain with W156H, M210L
# B10: unnamed (protein)
# chain: B1 chain with M210D
# B11: unnamed (protein)
# chain: B1 chain with F63Y, M210L
# B12: unnamed (protein)
# chain: B1 chain with L93F, Q95Y, R205C, M210L, S251C
# B13: unnamed (protein)
# chain: B1 chain with F63A, M210L
# B14: unnamed (protein)
# chain: B1 chain with M210R
# B15: unnamed (protein)
# chain: B1 chain with M210Q
# B16: unnamed (protein)
# chain: B1 chain with W156A, M210L
# B17: unnamed (protein)
# chain: B1 chain with M210V
# B18: unnamed (protein)
# chain: B1 chain with M210P
# Substrate: gfPET
# Assay: Proxy for plastic degradation [Relative activity]
# Settings: pH 8
row,Protein,Proxy for plastic degradation
1,B1,74%
2,B2,58%
3,B3,8%
4,B4,6%
5,B5,26%
6,B6,8%
7,B7,48%
8,B8,54%
9,B9,1%
10,B10,66%
11,B11,65%
12,B12,70%
13,B13,22%
14,B14,95%
15,B15,94%
16,B16,5%
17,B17,61%
18,B18,16%
